Reference: patent publication US20110118131A1 (published 2011)

Each binder was assayed against IL-1β (UniProt P01584 117-269) (assay: Biacore, Fab periplasmic extract on IL-1β).

binding result | fold difference in affinity vs original [fold] | Binder
no binding | – | XPA23 light chain L96P (Fab, V domains shown, Single light chain substitution; Fab in periplasmic extract; also called C5A (XPA23) L96P) VH: EVQLLESGGGLVQPGGSLRLSCAASGFTFSKYFMFWVRQAPGKGLEWVSVISPSGGMTRYADSVKGRFTISRDNSKNTLYLQMNSLRAEDTAVYYCARVGYGGNSDYWGQGTLVTVSS VL: DIQMTQSPSSVSASVGDRLTIICRASQDINRWLAWYQQTPGNAPKLLIHSATSLQSGVPSRFSGSGSGTDFTLTINSLQPEDFATYYCQQADSFPPTFGGGTKVEIK
– | 3.83 | XPA23 light chain P95A (Fab, V domains shown, Single light chain substitution; Fab in periplasmic extract; also called C5A (XPA23) P95A) VH: EVQLLESGGGLVQPGGSLRLSCAASGFTFSKYFMFWVRQAPGKGLEWVSVISPSGGMTRYADSVKGRFTISRDNSKNTLYLQMNSLRAEDTAVYYCARVGYGGNSDYWGQGTLVTVSS VL: DIQMTQSPSSVSASVGDRLTIICRASQDINRWLAWYQQTPGNAPKLLIHSATSLQSGVPSRFSGSGSGTDFTLTINSLQPEDFATYYCQQADSFALTFGGGTKVEIK
no binding | – | XPA23 light chain P95G (Fab, V domains shown, Single light chain substitution; Fab in periplasmic extract; also called C5A (XPA23) P95G) VH: EVQLLESGGGLVQPGGSLRLSCAASGFTFSKYFMFWVRQAPGKGLEWVSVISPSGGMTRYADSVKGRFTISRDNSKNTLYLQMNSLRAEDTAVYYCARVGYGGNSDYWGQGTLVTVSS VL: DIQMTQSPSSVSASVGDRLTIICRASQDINRWLAWYQQTPGNAPKLLIHSATSLQSGVPSRFSGSGSGTDFTLTINSLQPEDFATYYCQQADSFGLTFGGGTKVEIK
– | 1.42 | XPA23 light chain S53V (Fab, V domains shown, Single light chain substitution; Fab in periplasmic extract; also called C5A (XPA23) S53V) VH: EVQLLESGGGLVQPGGSLRLSCAASGFTFSKYFMFWVRQAPGKGLEWVSVISPSGGMTRYADSVKGRFTISRDNSKNTLYLQMNSLRAEDTAVYYCARVGYGGNSDYWGQGTLVTVSS VL: DIQMTQSPSSVSASVGDRLTIICRASQDINRWLAWYQQTPGNAPKLLIHSATVLQSGVPSRFSGSGSGTDFTLTINSLQPEDFATYYCQQADSFPLTFGGGTKVEIK
no binding | – | XPA23 light chain P95V (Fab, V domains shown, Single light chain substitution; Fab in periplasmic extract; also called C5A (XPA23) P95V) VH: EVQLLESGGGLVQPGGSLRLSCAASGFTFSKYFMFWVRQAPGKGLEWVSVISPSGGMTRYADSVKGRFTISRDNSKNTLYLQMNSLRAEDTAVYYCARVGYGGNSDYWGQGTLVTVSS VL: DIQMTQSPSSVSASVGDRLTIICRASQDINRWLAWYQQTPGNAPKLLIHSATSLQSGVPSRFSGSGSGTDFTLTINSLQPEDFATYYCQQADSFVLTFGGGTKVEIK
– | 1.03 | XPA23 light chain S53G (Fab, V domains shown, Single light chain substitution; Fab in periplasmic extract; also called C5A (XPA23) S53G) VH: EVQLLESGGGLVQPGGSLRLSCAASGFTFSKYFMFWVRQAPGKGLEWVSVISPSGGMTRYADSVKGRFTISRDNSKNTLYLQMNSLRAEDTAVYYCARVGYGGNSDYWGQGTLVTVSS VL: DIQMTQSPSSVSASVGDRLTIICRASQDINRWLAWYQQTPGNAPKLLIHSATGLQSGVPSRFSGSGSGTDFTLTINSLQPEDFATYYCQQADSFPLTFGGGTKVEIK
– | 0.06 | XPA23 light chain L96T (Fab, V domains shown, Single light chain substitution; Fab in periplasmic extract; also called C5A (XPA23) L96T) VH: EVQLLESGGGLVQPGGSLRLSCAASGFTFSKYFMFWVRQAPGKGLEWVSVISPSGGMTRYADSVKGRFTISRDNSKNTLYLQMNSLRAEDTAVYYCARVGYGGNSDYWGQGTLVTVSS VL: DIQMTQSPSSVSASVGDRLTIICRASQDINRWLAWYQQTPGNAPKLLIHSATSLQSGVPSRFSGSGSGTDFTLTINSLQPEDFATYYCQQADSFPTTFGGGTKVEIK
no binding | – | XPA23 light chain P95I (Fab, V domains shown, Single light chain substitution; Fab in periplasmic extract; also called C5A (XPA23) P95I) VH: EVQLLESGGGLVQPGGSLRLSCAASGFTFSKYFMFWVRQAPGKGLEWVSVISPSGGMTRYADSVKGRFTISRDNSKNTLYLQMNSLRAEDTAVYYCARVGYGGNSDYWGQGTLVTVSS VL: DIQMTQSPSSVSASVGDRLTIICRASQDINRWLAWYQQTPGNAPKLLIHSATSLQSGVPSRFSGSGSGTDFTLTINSLQPEDFATYYCQQADSFILTFGGGTKVEIK
– | 1.07 | XPA23 light chain S53A (Fab, V domains shown, Single light chain substitution; Fab in periplasmic extract; also called C5A (XPA23) S53A) VH: EVQLLESGGGLVQPGGSLRLSCAASGFTFSKYFMFWVRQAPGKGLEWVSVISPSGGMTRYADSVKGRFTISRDNSKNTLYLQMNSLRAEDTAVYYCARVGYGGNSDYWGQGTLVTVSS VL: DIQMTQSPSSVSASVGDRLTIICRASQDINRWLAWYQQTPGNAPKLLIHSATALQSGVPSRFSGSGSGTDFTLTINSLQPEDFATYYCQQADSFPLTFGGGTKVEIK
– | 4.92 | XPA23 light chain S53P (Fab, V domains shown, Single light chain substitution; Fab in periplasmic extract; also called C5A (XPA23) S53P) VH: EVQLLESGGGLVQPGGSLRLSCAASGFTFSKYFMFWVRQAPGKGLEWVSVISPSGGMTRYADSVKGRFTISRDNSKNTLYLQMNSLRAEDTAVYYCARVGYGGNSDYWGQGTLVTVSS VL: DIQMTQSPSSVSASVGDRLTIICRASQDINRWLAWYQQTPGNAPKLLIHSATPLQSGVPSRFSGSGSGTDFTLTINSLQPEDFATYYCQQADSFPLTFGGGTKVEIK
– | 1.16 | XPA23 light chain S93A (Fab, V domains shown, Single light chain substitution; Fab in periplasmic extract; also called C5A (XPA23) S93A) VH: EVQLLESGGGLVQPGGSLRLSCAASGFTFSKYFMFWVRQAPGKGLEWVSVISPSGGMTRYADSVKGRFTISRDNSKNTLYLQMNSLRAEDTAVYYCARVGYGGNSDYWGQGTLVTVSS VL: DIQMTQSPSSVSASVGDRLTIICRASQDINRWLAWYQQTPGNAPKLLIHSATSLQSGVPSRFSGSGSGTDFTLTINSLQPEDFATYYCQQADAFPLTFGGGTKVEIK
– | 1.42 | XPA23 light chain S53I (Fab, V domains shown, Single light chain substitution; Fab in periplasmic extract; also called C5A (XPA23) S53I) VH: EVQLLESGGGLVQPGGSLRLSCAASGFTFSKYFMFWVRQAPGKGLEWVSVISPSGGMTRYADSVKGRFTISRDNSKNTLYLQMNSLRAEDTAVYYCARVGYGGNSDYWGQGTLVTVSS VL: DIQMTQSPSSVSASVGDRLTIICRASQDINRWLAWYQQTPGNAPKLLIHSATILQSGVPSRFSGSGSGTDFTLTINSLQPEDFATYYCQQADSFPLTFGGGTKVEIK
no binding | – | XPA23 light chain P95L (Fab, V domains shown, Single light chain substitution; Fab in periplasmic extract; also called C5A (XPA23) P95L) VH: EVQLLESGGGLVQPGGSLRLSCAASGFTFSKYFMFWVRQAPGKGLEWVSVISPSGGMTRYADSVKGRFTISRDNSKNTLYLQMNSLRAEDTAVYYCARVGYGGNSDYWGQGTLVTVSS VL: DIQMTQSPSSVSASVGDRLTIICRASQDINRWLAWYQQTPGNAPKLLIHSATSLQSGVPSRFSGSGSGTDFTLTINSLQPEDFATYYCQQADSFLLTFGGGTKVEIK
no binding | – | XPA23 light chain P95T (Fab, V domains shown, Single light chain substitution; Fab in periplasmic extract; also called C5A (XPA23) P95T) VH: EVQLLESGGGLVQPGGSLRLSCAASGFTFSKYFMFWVRQAPGKGLEWVSVISPSGGMTRYADSVKGRFTISRDNSKNTLYLQMNSLRAEDTAVYYCARVGYGGNSDYWGQGTLVTVSS VL: DIQMTQSPSSVSASVGDRLTIICRASQDINRWLAWYQQTPGNAPKLLIHSATSLQSGVPSRFSGSGSGTDFTLTINSLQPEDFATYYCQQADSFTLTFGGGTKVEIK
– | 0.99 | XPA23 light chain S53L (Fab, V domains shown, Single light chain substitution; Fab in periplasmic extract; also called C5A (XPA23) S53L) VH: EVQLLESGGGLVQPGGSLRLSCAASGFTFSKYFMFWVRQAPGKGLEWVSVISPSGGMTRYADSVKGRFTISRDNSKNTLYLQMNSLRAEDTAVYYCARVGYGGNSDYWGQGTLVTVSS VL: DIQMTQSPSSVSASVGDRLTIICRASQDINRWLAWYQQTPGNAPKLLIHSATLLQSGVPSRFSGSGSGTDFTLTINSLQPEDFATYYCQQADSFPLTFGGGTKVEIK
